Data published in patent publication US20240398942A1, “USE OF ANTI-CD40 ANTIBODY” (CHIA TAI TIANQING PHARMACEUTICAL GROUP CO., LTD., priority 2021, published 2024).

Key:
Human CD40-his [1] = biological target: T1, Human CD40-his (Homo sapiens, UniProt P25942); test: Biacore surface plasmon resonance affinity and binding kinetics; details: for Kd: dissociation rate
T1 construct: His; purchased Acro biosystems CD0-H5228
Description: (§1) The affinity and binding kinetics of the anti-CD40 antibody in the present application were characterized by a Biacore T200 system (GE Healthcare, Pittsburgh, PA, USA).
(§2) Briefly, a goat anti-human IgG (GE Healthcare, Cat. No. BR100839, human antibody capture kit) was covalently linked to a CM5 chip (GE Healthcare, Cat. No. BR100530, carboxymethylated dextran-coated chip) via the primary amine group using a standard amine coupling kit supplied by Biacore (GE Healthcare, Pittsburgh, PA, USA). Unreacted portions on the biosensor surface were blocked with ethanolamine. Then, the anti-CD40 antibody of the present application and two benchmark antibodies (BM1 (dacetuzumab, Genentech Inc., also referred to CD40-BM1, prepared in-house; the heavy and light chain amino acid sequences are set forth in SEQ ID NOs: 40 and 41, respectively) and BM2 (selicrelumab, Abgenix Inc., also referred to CD40-BM2, prepared in-house; the heavy and light chain amino acid sequences are set forth in SEQ ID NOS: 42 and 43, respectively)) at a concentration of 66.67 nM were directed through the chip at a flow rate of 10 μL/min. Then, serially diluted recombinant human CD40-his (Acro biosystems, Cat. No. CD0-H5228, serially 2-fold diluted from 80 nM in HBS-EP^+ buffer (supplied by Biacore)) or cynomolgus monkey CD40-his protein (Acro biosystems, Cat. No. CD0-C52H6, serially 2-fold diluted from 80 nM in HBS-EP^+ buffer (supplied by Biacore)) was directed through the chip at a flow rate of 30 μL/min. The antigen-antibody binding kinetics was tracked for 2 min and the dissociation kinetics was tracked for 10 min. The association and dissociation curves were fitted to a 1:1 Langmuir binding model using BIAcore evaluation software. KD, Ka, and Kd values were determined.

[2] = tested on: Cynomolgus monkey CD40-his; test: as above; details: for Kd: dissociation rate
Description: as §1, §2

human CD40-Fc protein = human CD40-Fc protein (Homo sapiens, UniProt P25942); test: Capture ELISA binding; details: in words, FIGS. 1A-1C
Description: For capture ELISA, an affinity-purified goat anti-human IgG (F(ab′)2 fragment-specific, Jackson Immuno Research, Cat. No. 109-005-097) in PBS at a concentration of 2 μg/mL was immobilized on a 96-well plate at 100 μL/well and incubated overnight at 4° C. The plate was washed once with a washing buffer (PBS+0.05% v/v of Tween-20, PBST) and then blocked with 200 μL/well blocking buffer (PBST containing 5% w/v of skim milk) for 2 h at 37° C. The plate was washed 4 times, and the anti-CD40 antibody of the present application, BM1, BM2, and a negative control hIgG (human immunoglobulin for intravenous injection (pH 4), Hualan Biological Engineering Inc.) serially 5-fold diluted from 66.7 nM in a PBST containing 2.5% w/v of skim milk was added at 100 μL per well. The plate was incubated for 40 min at 37° C. and washed 4 times. A biotinylated human CD40-Fc protein (amino acid residues 21-193 of SEQ ID NO: 30 linked to the N terminus of amino acid residues 99-330 of SEQ ID NO: 28, dissolved in PBST containing 2.5% w/v of skim milk at a concentration of 1.15 nM) was added at 100 μL/well to a 96-well plate coated with the anti-CD40 antibody. The plate was incubated at 37° C. for 40 min and washed 4 times. An HRP-labeled streptavidin (diluted at 1:10000 in PBST, Jackson Immuno Research, Cat. No. 016-030-084) was added at 100 μL/well, and the plate was incubated at 37° C. for another 40 min. […]

Human CD40-his [3] = biological target: T1, Human CD40-his; test: Octet kinetics of humanized C1H1 antibodies; format: binding; details: Table 3, Octet; for Ka: humanized antibodies in cell supernatant, chimeric and benchmark 5 μg/mL
Description: After six days of culture in a shake flask, the cell supernatant containing the humanized antibodies huC1H1-V1 to huC1H1-V4 was harvested and the binding affinity of the antibodies to human CD40 was determined on an Octet system (Fortebio, Octet RED 96) according to the following procedures. Briefly, an anti-human IgG Fc capture (AHC) biosensor (from ForteBio) was pre-soaked in a 10 mM glycine solution (pH 1.5) for 3 s, and then soaked in a running buffer (PBST containing 0.5% w/v of BSA) for 3 s. The pre-soaking and soaking procedures were repeated 3 times. Then, the sensor was soaked in the cell supernatant containing the humanized anti-CD40 antibody, chimeric antibody C1H1 dissolved in HBS-EP^+ buffer at a concentration of 5 μg/mL, or the benchmark dissolved in HBS-EP^+ buffer at a concentration of 5 μg/mL for 120 s, and then soaked in the running buffer for 5 min. The new baseline was run in the running buffer for 180 s. The sensor was then soaked for 120 s in human CD40-his protein (Acro biosystems, Cat. No. CD0-H5228) 2-fold serially diluted from 40 nM in the running buffer and for 10 min in the running buffer […]. Finally, the sensor was pre-soaked in a 10 mM glycine solution (pH 1.5) for 3 s, and then soaked in the running buffer for 3 s. The pre-soaking and soaking procedures were repeated 3 times. The association and dissociation curves were fitted to a 1:1 Langmuir binding model using ForteBio Data Analysis 8.1.

[4] = Table 2, Biacore, association rate
[5] = Table 5, Biacore, purified antibodies

T1 sequence (P25942 21-277): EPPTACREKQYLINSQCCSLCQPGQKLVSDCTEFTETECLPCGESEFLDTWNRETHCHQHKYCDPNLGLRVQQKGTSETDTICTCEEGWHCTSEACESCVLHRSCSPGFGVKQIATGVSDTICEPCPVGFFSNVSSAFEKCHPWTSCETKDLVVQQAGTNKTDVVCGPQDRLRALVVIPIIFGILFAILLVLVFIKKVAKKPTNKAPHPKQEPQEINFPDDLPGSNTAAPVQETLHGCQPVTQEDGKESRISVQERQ
Sequence of human CD40-Fc protein (P25942 21-193): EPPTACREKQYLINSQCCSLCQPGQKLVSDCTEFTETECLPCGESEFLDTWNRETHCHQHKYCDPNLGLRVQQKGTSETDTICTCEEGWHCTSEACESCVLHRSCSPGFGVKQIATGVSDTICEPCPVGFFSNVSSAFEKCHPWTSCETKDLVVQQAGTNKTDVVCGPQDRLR

Molecule	Ka (Human CD40-his [1]; [4]) [M⁻¹ s⁻¹]	Kd (Human CD40-his [1]; Table 2, Biacore) [s⁻¹]	Kd (Human CD40-his [1]; Table 5, Biacore) [s⁻¹]	Ka (Human CD40-his [1]; [5]) [M⁻¹ s⁻¹]	Ka [2, 4] [M⁻¹ s⁻¹]	Kd ([2]; Table 2, Biacore) [s⁻¹]	Kd ([2]; Table 5, Biacore) [s⁻¹]	Ka [2, 5] [M⁻¹ s⁻¹]	Kd (Human CD40-his [3]; dissociation rate) [s⁻¹]	Ka (Human CD40-his [3]) [M⁻¹ s⁻¹]	Kd (Human CD40-his [3]; read-out: KD) [nM]	Binding ability to human CD40 in capture ELISA (human CD40-Fc protein)
Chimeric C1H1: C1H1 variable regions (SEQ ID NOs: 19, 23) on human IgG1 heavy chain and human κ light chain constant regions (antibody, V domains shown, human IgG1 and kappa constant regions; VH of mouse and chimeric C1H1 antibodies; VL of mouse and chimeric C1H1 antibodies) VH: EVKLVESGGGLVKPGASLKLSCAASGFTFSNYGISWVRQTSDKRLEWVASISSGGDNTYYPDNVKGRFTISRENAKNTLYLQMSSLKSEDTALYYCARAGEKAMDYWGQGTSVTVSS VL: DIVLTQSPVTLSVTPGDSVSLSCRASQTINNNLHWYQQKSHESPRLLIKYASQSISGIPSRFSGSGSGTDFTLSINSVETEDFGIYFCQQFSSWPLTFGAGTKLELK	1.82e+06	0.001567	0.002221	2.51e+06	1.39e+06	0.001478	0.002147	2.54e+06	0.000929	1.47e+06	–	higher binding affinity and ability to human CD40
huC1H1-V4: humanized C1H1 anti-CD40 antibody, VH SEQ ID NO: 20 X1=S, VL SEQ ID NO: 24 X1=Y X2=Y, human IgG2/κ (antibody, V domains shown, not fully specified; variable positions X1=S; VL X1=Y X2=Y; IgG2/kappa constant; VH of huC1H1-V1 to huC1H1-V4; VARIANT 49 X can be A or S; VL of huC1H1-V1 to huC1H1-V4; VARIANT 49 X can be K or Y; VARIANT 87 X can be F or Y) VH: EVQLVESGGGLVKPGGSLRLSCAASGFTFSNYGISWVRQAPGKGLEWVXSISSGGDNTYYPDNVKGRFTISRDNAKNSLYLQMNSLRAEDTAVYYCARAGEKAMDYWGQGTLVTVSS VL: EIVLTQSPATLSLSPGERATLSCRASQTINNNLHWYQQKPGQAPRLLIXYASQSISGIPARFSGSGSGTDFTLTISSLEPEDFAVYXCQQFSSWPLTFGGGTKVEIK	–	–	–	–	–	–	–	–	0.00367	424000	8.66	–

More lines, main results first:

Ka (Human CD40-his [1]; [4]) [M⁻¹ s⁻¹]	Kd (Human CD40-his [1]; Table 2, Biacore) [s⁻¹]	Kd (Human CD40-his [1]; Table 5, Biacore) [s⁻¹]	Ka (Human CD40-his [1]; [5]) [M⁻¹ s⁻¹]	Ka [2, 4] [M⁻¹ s⁻¹]	Kd ([2]; Table 2, Biacore) [s⁻¹]	Kd ([2]; Table 5, Biacore) [s⁻¹]	Ka [2, 5] [M⁻¹ s⁻¹]	Kd (Human CD40-his [3]; dissociation rate) [s⁻¹]	Ka (Human CD40-his [3]) [M⁻¹ s⁻¹]	Kd (Human CD40-his [3]; read-out: KD) [nM]	Molecule	Binding ability to human CD40 in capture ELISA (human CD40-Fc protein)
1.79e+06	0.001227	0.000897	2.1e+06	1.39e+06	0.001184	0.000863	2.29e+06	–	–	–	Mouse C1H1: mouse anti-CD40 monoclonal antibody, VH SEQ ID NO: 19, VL SEQ ID NO: 23 (antibody, V domains shown, VH of mouse and chimeric C1H1 antibodies; VL of mouse and chimeric C1H1 antibodies) VH: EVKLVESGGGLVKPGASLKLSCAASGFTFSNYGISWVRQTSDKRLEWVASISSGGDNTYYPDNVKGRFTISRENAKNTLYLQMSSLKSEDTALYYCARAGEKAMDYWGQGTSVTVSS VL: DIVLTQSPVTLSVTPGDSVSLSCRASQTINNNLHWYQQKSHESPRLLIKYASQSISGIPSRFSGSGSGTDFTLSINSVETEDFGIYFCQQFSSWPLTFGAGTKLELK	–
–	–	–	–	–	–	–	–	0.00283	523000	5.41	huC1H1-V3: humanized C1H1 anti-CD40 antibody, VH SEQ ID NO: 20 X1=A, VL SEQ ID NO: 24 X1=Y X2=Y, human IgG2/κ (antibody, V domains shown, not fully specified; variable positions X1=A; VL X1=Y X2=Y; IgG2/kappa constant; VH of huC1H1-V1 to huC1H1-V4; VARIANT 49 X can be A or S; VL of huC1H1-V1 to huC1H1-V4; VARIANT 49 X can be K or Y; VARIANT 87 X can be F or Y) VH: EVQLVESGGGLVKPGGSLRLSCAASGFTFSNYGISWVRQAPGKGLEWVXSISSGGDNTYYPDNVKGRFTISRDNAKNSLYLQMNSLRAEDTAVYYCARAGEKAMDYWGQGTLVTVSS VL: EIVLTQSPATLSLSPGERATLSCRASQTINNNLHWYQQKPGQAPRLLIXYASQSISGIPARFSGSGSGTDFTLTISSLEPEDFAVYXCQQFSSWPLTFGGGTKVEIK	–
